In patent US20120034160A1 (AbbVie / Abbott, published 2012):

T1: Recombinant Human IL-17 (human, UniProt Q16552 20-155, limits assumed)
T1 construct: Bought reagent
T1 sequence (looked up): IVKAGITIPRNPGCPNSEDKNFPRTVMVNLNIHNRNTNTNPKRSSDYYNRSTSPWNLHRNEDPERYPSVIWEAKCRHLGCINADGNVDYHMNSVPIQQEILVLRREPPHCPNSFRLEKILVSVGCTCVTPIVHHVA

T2: Recombinant Human IL-17 (human, UniProt Q16552 20-155, limits assumed)
T2 construct: bought reagent
T2 sequence (looked up): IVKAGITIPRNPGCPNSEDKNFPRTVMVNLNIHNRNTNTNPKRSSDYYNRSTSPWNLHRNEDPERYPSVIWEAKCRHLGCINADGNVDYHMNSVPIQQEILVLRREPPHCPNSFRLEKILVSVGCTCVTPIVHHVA

B1: AB275 (antibody, human IgG1, kappa, V domains shown)
VH: EVQLVQSGAEVKKPGESVKISCKASGGSFRSYGISWVRQAPGQGLEWMGGITHFFGITDYAQKFQGRVTITADESTTTAYMELSGLTSDDTAVYYCAREPNDFWNGYYDTHDFDSWGQGTTVTVSS
VL: EIVLTQSPDFQSVTPKEKVTITCRASQNIGSELHWYQQKPDQSPKLLIKYASHSISGVPSRFSGSGSGTDFTLTINGLEAEDAATYYCHQSDTLPHTFGQGTKVDIKR
notes: Parent antibody
B2: AB275 (antibody, human IgG1, kappa, V domains shown)
VH: EVQLVQSGAEVKKPGESVKISCKASGGSFRSYGISWVRQAPGQGLEWMGGITHFFGITDYAQKFQGRVTITADESTTTAYMELSGLTSDDTAVYYCAREPNDFWNGYYDTHDFDSWGQGTTVTVSS
VL: EIVLTQSPDFQSVTPKEKVTITCRASQNIGSELHWYQQKPDQSPKLLIKYASHSISGVPSRFSGSGSGTDFTLTINGLEAEDAATYYCHQSDTLPHTFGQGTKVDIKR
notes: constants by vectors: V1 wt hIgG1, V2 kappa

Legend:
Recombinant Human IL-17 [1] = target: T1, Recombinant Human IL-17; assay: Biacore SPR
Protocol: (§1) The BIACORE assay (Biacore, Inc, Piscataway, N.J.) determines the affinity of antibodies or DVD-Ig with kinetic measurements of on-rate and off-rate constants. Binding of antibodies or DVD-Ig to a target antigen (for example, a purified recombinant target antigen) was determined by surface plasmon resonance-based measurements with a Biacore® 1000 or 3000 instrument (Biacore® AB, Uppsala, Sweden) using running HBS-EP (10 mM HEPES [pH 7.4], 150 mM NaCl, 3 mM EDTA, and 0.005% surfactant P20) at 25° C. All chemicals were obtained from Biacore® AB (Uppsala, Sweden) or otherwise from a different source as described in the text. For example, approximately 5000 RU of goat anti-mouse IgG, (Fcγ), fragment specific polyclonal antibody (Pierce Biotechnology Inc, Rockford, Ill.) diluted in 10 mM sodium acetate (pH 4.5) was directly immobilized across a CM5 research grade biosensor chip using a standard amine coupling kit according to manufacturer's instructions and procedures at 25 μg/ml. Unreacted moieties on the biosensor surface were blocked with ethanolamine. Modified carboxymethyl dextran surface in flowcell 2 and 4 was used as a reaction surface. Unmodified carboxymethyl dextran without goat anti-mouse IgG in flow cell 1 and 3 was used as the reference surface. For kinetic analysis, rate equations derived from the 1:1 Langmuir binding model were fitted simultaneously to association and dissociation phases of all eight injections (using global fit analysis) with the use of Biaevaluation 4.0.1 software. Purified antibodies or DVD-Ig were diluted in HEPES-buffered saline for capture across goat anti-mouse IgG specific reaction surfaces. Antibodies or DVD-Ig to be captured as a ligand (25 μg/ml) were injected over reaction matrices at a flow rate of 5 μl/min. The association and dissociation rate constants, kₒₙ (M⁻¹s⁻¹) and koff (s⁻¹) were determined under a continuous flow rate of 25 μl/min. Rate constants were derived by making kinetic binding measurements at different antigen concentrations ranging from 10−200 nM. The equilibrium dissociation constant (M) of the reaction between antibodies or DVD-Igs and the target antigen was then calculated from the kinetic rate constants by the following formula: KD=koff/kₒₙ. Binding was recorded as a function of time and kinetic rate constants are calculated.

Recombinant Human IL-17 [2] = target: T1, Recombinant Human IL-17; assay: cell-based or functional assay
Recombinant Human IL-17 [3] = target: T1, Recombinant Human IL-17; assay: Biacore SPR; later run, parent printed with DVD1639-DVD1648; kon 4.70E+06, koff 8.50E-05
Protocol: (§2) The BIACORE assay (Biacore, Inc, Piscataway, N.J.) determines the affinity of antibodies or DVD-Ig with kinetic measurements of on-rate and off-rate constants. Binding of antibodies or DVD-Ig to a target antigen (for example, a purified recombinant target antigen) was determined by surface plasmon resonance-based measurements with a Biacore® 1000 or 3000 instrument (Biacore® AB, Uppsala, Sweden) using running HBS-EP (10 mM HEPES [pH 7.4], 150 mM NaCl, 3 mM EDTA, and 0.005% surfactant P20) at 25° C. All chemicals were obtained from Biacore® AB (Uppsala, Sweden) or otherwise from a different source as described in the text. […] The association and dissociation rate constants, kₒₙ (M⁻¹s⁻¹) and koff (s⁻¹) were determined under a continuous flow rate of 25 μl/min. […] The equilibrium dissociation constant (M) of the reaction between antibodies or DVD-Igs and the target antigen was then calculated from the kinetic rate constants by the following formula: KD=koff/kₒₙ. Binding was recorded as a function of time and kinetic rate constants are calculated.

Recombinant Human IL-17 [4] = target: T2, Recombinant Human IL-17; assay: Biacore SPR
Protocol: as §1

Recombinant Human IL-17 [5] = target: T2, Recombinant Human IL-17; assay: Biacore SPR; first run, parent printed with DVD1282-DVD1291; kon 2.80E+03, koff 2.40E-05
Protocol: as §2

| Binder | koff (Recombinant Human IL-17 [1]) [s⁻¹] | kon (Recombinant Human IL-17 [1]) [M⁻¹ s⁻¹] | IL-17 Neutralization Assay EC50 (Recombinant Human IL-17 [2]) [pM] | Kd (Recombinant Human IL-17 [3]) [nM] | Kd (Recombinant Human IL-17 [4]) [nM] | Kd (Recombinant Human IL-17 [5]) [nM] |
| --- | --- | --- | --- | --- | --- | --- |
| B1 | 8.5e-05 | 4.7e+06 | 3.2 | 0.018 | – | – |
| B2 | – | – | – | – | 0.019 | 8.8 |
